Positions count from the first letter of the chain named.
B1: ADI-42594 (antibody, V domains shown)
VH: QVQLVQSGAEVKKPGASVKVSCKASGFNIKDYYMHWVRQAPGQRLEWIGWIDLENANTVYDAKFQGRVTITRDTSASTAYMELSSLRSEDTAVYYCARDAYGRYFYDVWGQGTLVTVSS
VL: DIVMTQSPDSLAVSLGERATINCKSSQSLLNARTGKNYLAWYQQKPGQPPKLLIYWASTRESGVPDRFSGSGSGTDFTLTISSLQAEDVAVYYCKQSYFRRTFGGGTKVEIK
notes: also called Ab1
B2: ADI-45959 (antibody, V domains shown)
VH: B1 VH
VL: B1 VL with T5S, E61S, K95V
notes: also called Ab13
B3: ADI-46378 (antibody, V domains shown)
VH: B1 VH with T78A
VL: B1 VL with G35R, Q48R, K95V
notes: also called Ab40
B4: ADI-46366 (antibody, V domains shown)
VH: B1 VH with R103Q
VL: B1 VL with K95V
notes: also called Ab50
B5: ADI-46359 (antibody, V domains shown)
VH: B1 VH with R103Q
VL: B1 VL with K95T
notes: also called Ab42
B6: ADI-46357 (antibody, V domains shown)
VH: B1 VH
VL: B1 VL with K95A
notes: also called Ab30
B7: ADI-45975 (antibody, V domains shown)
VH: B1 VH with R103Q
VL: B1 VL with G35R
notes: also called Ab11
B8: ADI-45984 (antibody, V domains shown)
VH: B1 VH
VL: B1 VL with G35R, K95V
notes: also called Ab21
B9: ADI-42596 (antibody, V domains shown)
VH: B1 VH
VL: B1 VL with G35R
notes: also called Ab2
B10: ADI-45985 (antibody, V domains shown)
VH: B1 VH
VL: B1 VL with S25T, G35N, K95V
notes: also called Ab22
B11: ADI-45982 (antibody, V domains shown)
VH: B1 VH
VL: B1 VL with S62N, K95T
notes: also called Ab19
B12: ADI-45981 (antibody, V domains shown)
VH: B1 VH
VL: B1 VL with T59M, G72R, K95S
notes: also called Ab18
B13: ADI-45980 (antibody, V domains shown)
VH: B1 VH with S84N
VL: B1 VL with S58F, K95T
notes: also called Ab17
B14: ADI-45977 (antibody, V domains shown)
VH: B1 VH with F64L, R87G
VL: B1 VL with K95T
notes: also called Ab14
B15: ADI-45978 (antibody, V domains shown)
VH: B1 VH with I48L
VL: B1 VL with T59A, K95T
notes: also called Ab15
B16: ADI-45979 (antibody, V domains shown)
VH: B1 VH
VL: B1 VL with S28E
notes: also called Ab16
B17: ADI-45983 (antibody, V domains shown)
VH: B1 VH with S77G
VL: B1 VL with G35M, W56A, K95A
notes: also called Ab20

target: Human CD3εδ-Fc (human) (UniProt P04234); assay: Biacore SPR, monovalent KD, biotinylated human CD3εδ-Fc
Sequence (chain, as listed by the source mutant, chain 1 of 2): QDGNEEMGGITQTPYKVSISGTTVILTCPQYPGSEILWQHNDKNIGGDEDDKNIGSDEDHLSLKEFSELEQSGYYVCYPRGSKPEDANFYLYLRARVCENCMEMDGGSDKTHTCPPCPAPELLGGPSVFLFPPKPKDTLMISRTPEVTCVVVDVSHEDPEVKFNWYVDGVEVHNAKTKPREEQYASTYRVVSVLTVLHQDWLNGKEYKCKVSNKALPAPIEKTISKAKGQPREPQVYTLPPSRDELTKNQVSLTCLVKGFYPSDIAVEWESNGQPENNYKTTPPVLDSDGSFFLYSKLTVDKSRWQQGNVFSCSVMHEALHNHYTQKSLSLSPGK
Sequence (P04234 22-105, stated change not applied, chain 2 of 2): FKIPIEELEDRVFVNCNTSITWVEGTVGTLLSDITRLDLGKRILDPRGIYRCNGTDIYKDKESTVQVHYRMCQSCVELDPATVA

Binder | Kd [nM]
B1 | 0.47
B2 | 0.12
B3 | 0.12
B4 | 0.23
B5 | 0.22
B6 | 0.25
B7 | 0.21

target: T1, Human CD3 on Human CD3+ Jurkat cells (human, UniProt P07766 23-207); assay: cell binding hCD3, fold over background
T1 construct: whole, on cells; CD3 complex on cells; also called hCD3
T1 sequence (P07766 23-207): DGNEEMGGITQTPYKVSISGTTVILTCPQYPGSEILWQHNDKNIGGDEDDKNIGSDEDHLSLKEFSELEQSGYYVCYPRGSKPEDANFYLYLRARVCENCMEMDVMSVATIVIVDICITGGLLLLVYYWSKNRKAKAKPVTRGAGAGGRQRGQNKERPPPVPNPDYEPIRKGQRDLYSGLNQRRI

Binder | Cell Binding hCD3 (FOB)
B1 | 36
B2 | 19
B8 | 88
B9 | 29
B3 | 22
B10 | 21
B11 | 24
B12 | 33
B13 | 8
B4 | 43
B5 | 43
B6 | 24
B7 | 86
B14 | 59
B15 | 25
B16 | 54
B17 | 24

target: T2, Cynomolgus CD3 on Cyno CD3+ Jurkat cells (cynomolgus, UniProt Q95LI5 22-198); assay: cell binding cCD3, fold over background
T2 construct: whole, on cells; CD3 on cells; also called cCD3
T2 sequence (Q95LI5 22-198): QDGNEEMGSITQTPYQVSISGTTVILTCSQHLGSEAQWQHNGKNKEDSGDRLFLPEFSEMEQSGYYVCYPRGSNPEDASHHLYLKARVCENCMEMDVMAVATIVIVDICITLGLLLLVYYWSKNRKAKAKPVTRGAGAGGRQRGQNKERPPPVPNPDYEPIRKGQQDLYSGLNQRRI

Binder | Cell Binding cCD3 (FOB)
B1 | 122
B2 | 112
B8 | 92
B9 | 46
B3 | 91
B10 | 23
B11 | 31
B12 | 78
B13 | 85
B4 | 108
B5 | 102
B6 | 80
B7 | 142
B14 | 159
B15 | 37
B16 | 72
B17 | 101

target: Human CD3εδ-Fc (human) (UniProt P04234); assay: KD of scFv-Fc or IgG on human CD3εδ-Fc; instrument not given

Binder | Kd [nM]
B1 | 0.2
B2 | 0.13
B8 | 0.095
B9 | 0.16
B3 | 0.92
B10 | 0.08
B11 | 0.12
B12 | 0.089
B13 | 0.08
B4 | 0.93
B5 | 0.89
B6 | 0.97
B7 | 0.067
B14 | 0.091
B15 | 0.074
B16 | 0.19
B17 | 0.23

target: Human CD3εδ-Fc (human) (UniProt P04234); assay: KD of scFv-Fc or IgG on human CD3εδ-Fc; instrument not given; second row for this clone

Binder | Kd [nM]
B9 | 1.1

target: T1, Human CD3 on Human CD3+ Jurkat cells; assay: cell binding, human CD3+ Jurkat cells

Binder | Cell Binding Fold Over Background (FOB)
B1 | 14
B2 | 18
B3 | 17
B4 | 16
B5 | 15
B6 | 13
B7 | 10

target: Cyno CD3εδ-Fc (cynomolgus) (UniProt Q95LI8); assay: KD of scFv-Fc or IgG on cyno CD3εδ-Fc; instrument not given
Sequence (chain, as listed by the source mutant, chain 1 of 2): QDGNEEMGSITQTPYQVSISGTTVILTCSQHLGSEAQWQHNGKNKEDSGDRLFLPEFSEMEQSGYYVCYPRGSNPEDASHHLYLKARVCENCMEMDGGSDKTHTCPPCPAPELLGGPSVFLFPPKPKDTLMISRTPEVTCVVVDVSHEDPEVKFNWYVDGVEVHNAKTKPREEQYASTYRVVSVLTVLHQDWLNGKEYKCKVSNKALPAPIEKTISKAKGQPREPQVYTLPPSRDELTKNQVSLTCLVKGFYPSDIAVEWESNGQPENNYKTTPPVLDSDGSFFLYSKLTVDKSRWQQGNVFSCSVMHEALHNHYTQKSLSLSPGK
Sequence (Q95LI8 22-105, stated change not applied, chain 2 of 2): as the sequence (P04234 22-105, stated change not applied, chain 2 of 2) above, with I5V, N15K, I20V, S32T, D33N, I34N, T64A, S74N, V83L counted along it

Binder | Kd [nM]
B1 | 2
B2 | 1.7
B8 | 1.3
B9 | 2.4
B10 | 1.2
B11 | 1.4
B12 | 1.6
B13 | 1.2
B7 | 1.4
B14 | 1.1
B15 | 1.2
B16 | 1.7
B17 | 2

target: T2, Cynomolgus CD3 on Cyno CD3+ Jurkat cells; assay: cell binding, cyno CD3+ Jurkat cells

Binder | Cell Binding Fold Over Background (FOB)
B1 | 16
B2 | 30
B3 | 30
B4 | 32
B5 | 28
B6 | 20
B7 | 17

Source: US20260209352A1 (Adimab, published 2026)
